# Positions count from the first letter of the chain named.
# B1: humanized #23-57-137-1 antibody with H chain version "a" and L chain version "s" (antibody, V domains shown)
# VH: QVQLVESGGGVVQPGRSLRLSCAASGFTFSSYGMSWVRQAPGKGLEWVATISSGGSYTYYPDSVKGRFTISRDNSKNTLYLQMNSLRAEDTAVYYCARQTTMTYFAYWGQGTLVTVSS
# VL: QLVLTQSPSASASLGASVKLTCTLSSQHSTYTIEWYQQQPEKGPKYVMDLKQDGSHSTGDGIPDRFSGSSSGAERYLTISSLQSEDEADYICGVGDTIKEQFVYVFGGGTKLTVLG
# notes: Human Cγ1 (IgG1) and human lambda C domain; also called hMBC1HcDNA/pCOS1 + hMBC1Lsλ/pCOS1
# B2: mouse FR1, 2/human FR3, 4 hybrid antibody (L chain m/hMBC1Ldλ) (antibody, V domains shown)
# VH: B1 VH
# VL: QLVLTQSSSASFSLGASAKLTCTLSSQHSTYTIEWYQQQPLKPPKYVMDLKQDGSHSTGDGIPDRFSGSSSGAERYLTISSLQSEDEADYICGVGDTIKEQFVYVFGGGTKLTVL
# notes: Human Cγ1 and human lambda C domain; Expressed in COS-7 cells; also called hMBC1HcDNA/pCOS1 + m/hMBC1Ldλ/neo
# B3: mouse FR1, 2/human FR3, 4 hybrid antibody (L chain m/hMBC1Laλ) (antibody, V domains shown)
# VH: B1 VH
# VL: B2 VL with I91Y
# notes: Human Cγ1 and human lambda C domain; Expressed in COS-7 cells; also called hMBC1HcDNA/pCOS1 + m/hMBC1Laλ/neo
# B4: humanized #23-57-137-1 antibody with H chain version "a" and L chain version "j" (antibody, IgG1, V domains shown)
# VH: B1 VH
# VL: B1 VL with V47L, I91Y
# notes: Human Cγ1 (IgG1) and human lambda C domain; Expressed in COS-7 cells; also called hMBC1HcDNA/pCOS1 + hMBC1Ljλ/pCOS1
# B5: humanized #23-57-137-1 antibody with H chain version "a" and L chain version "l" (antibody, IgG1, V domains shown)
# VH: B1 VH
# VL: B1 VL with I91Y
# notes: Human Cγ1 (IgG1) and human lambda C domain; Expressed in COS-7 cells; also called hMBC1HcDNA/pCOS1 + hMBC1Llλ/pCOS1
# B6: humanized #23-57-137-1 antibody with H chain version "a" and L chain version "r" (antibody, V domains shown)
# VH: B1 VH
# VL: B1 VL with K45R, V47L
# notes: Human Cγ1 (IgG1) and human lambda C domain; also called hMBC1HcDNA + hMBC1Lrλ
# B7: human FR1/mouse FR2, 3, 4 hybrid antibody (L chain hmmMBC1L(λ)) (antibody, V domains shown)
# VH: B1 VH
# VL: B2 VL with S8P, F12A, A18V, E74D, T78S, S81N, L82I, S84P, D89M, L112V
# notes: Human Cγ1 and human lambda C domain; Expressed in COS-7 cells; also called hMBC1HcDNA/pCOS1 + hmmMBC1L(λ)/neo
# B8: humanized #23-57-137-1 antibody with H chain version "a" and L chain version "m" (antibody, IgG1, V domains shown)
# VH: B1 VH
# VL: B1 VL with K45R, V47L, I91Y
# notes: Human Cγ1 (IgG1) and human lambda C domain; Expressed in COS-7 cells; also called hMBC1HcDNA/pCOS1 + hMBC1Lmλ/pCOS1
# B9: humanized #23-57-137-1 antibody with H chain version "a" and L chain version "t" (antibody, IgG1, V domains shown)
# VH: B1 VH
# VL: B1 VL with K45R
# notes: Human Cγ1 (IgG1) and human lambda C domain; Expressed in COS-7 cells; also called hMBC1HcDNA/pCOS1 + hMBC1Ltλ/pCOS1
# B10: antibody in which humanized H chain version "a" was combined with a chimera L chain (antibody, V domains shown)
# VH: B1 VH
# VL: QLVLTQSSSASFSLGASAKLTCTLSSQHSTYTIEWYQQQPLKPPKYVMDLKQDGSHSTGDGIPDRFSGSSSGADRYLSISNIQPEDEAMYICGVGDTIKEQFVYVFGGGTKVTVLG
# notes: H chain has human Cγ1; also called humanized H chain version a + chimera L chain
# B11: humanized #23-57-137-1 antibody with H chain version "a" and L chain version "o" (antibody, IgG1, V domains shown)
# VH: B1 VH
# VL: B1 VL with K45R, I91Y
# notes: Human Cγ1 (IgG1) and human lambda C domain; Expressed in COS-7 cells; also called hMBC1HcDNA/pCOS1 + hMBC1Loλ/pCOS1
# B12: humanized #23-57-137-1 antibody with H chain version "a" and L chain version "q" (antibody, IgG1, V domains shown)
# VH: B1 VH
# VL: B1 VL with V47L
# notes: Human Cγ1 (IgG1) and human lambda C domain; also called hMBC1HcDNA + hMBC1Lqλ; FERM BP-5629 / FERM BP-5630
# B13: chimera #23-57-137-1 antibody with human L chain kappa chain C domain (antibody, IgG1, V domains shown)
# VH: EVQLVESGGDLVKPGGSLKLSCAASGFTFSSYGMSWIRQTPDKRLEWVATISSGGSYTYYPDSVKGRFTISRDNAKNTLYLQMSSLKSEDTAMFYCARQTTMTYFAYWGQGTLVTVSA
# VL: B10 VL
# notes: Mouse V domains joined to human Cγ1 (IgG1) and to the human kappa C domain (from plasmid HEF-PM1k-gk); Expressed in COS-7 cells; also called chimeric antibody; MBC1HcDNA/pCOS1 + MBC1L(κ)/neo
# B14: chimera #23-57-137-1 antibody with human L chain lambda chain C domain (antibody, IgG1, V domains shown)
# VH: B13 VH
# VL: B10 VL
# notes: Expressed in COS-7 cells; also called chimeric antibody; MBC1HcDNA/pCOS1 + MBC1L(λ)/neo
# B15: mouse monoclonal antibody #23-57-137-1 (antibody, V domains shown)
# VH: B13 VH
# VL: B10 VL
# notes: Mouse hybridoma antibody; The L chain is a mouse lambda chain; the H chain was cloned with a mouse gamma-1 primer (MHC-G1); also called anti-PTHrP MoAb
# Biological target: T1, human PTHrP (1-34) (human)
# T1 construct: Synthetic peptide (Peninsula / Peptide Research Institute); coated on ELISA plates at 1 ug/ml; also called parathyroid hormone related peptide (1-34)
# Experiment: ELISA on plate coated with human PTHrP (1-34)
# Procedure: The ELISA plate for antigen binding measurement was prepared as follows. Each well of a 96 well plate for ELISA was coated with 100 μl of human PTHrP(1-34) (Peptide Research Institute) adjusted to 1 μg/ml concentration by the coating buffer. […] After the plate was incubated at room temperature and washed with PBS-Tween20, 100 μl of alkaline phosphatase (TAGO) conjugated goat anti-man IgG antibody was added. After the plate was incubated at room temperature and washed with PBS-Tween20, 1 mg/ml of a substrate solution (Sigma104, p-nitrophenylphosphate, SIGMA) was added, and, next, 405 nm absorption was measured with a micro plate reader (Bio Rad).
# The ELISA plate for antigen binding measurement was prepared as follows. Each well of a 96 well plate for ELISA was coated with 100 μl of human PTHrP(1-34) adjusted to 1 μg/ml concentration by the coating buffer. After blocking with 200 μl of the dilution buffer, the culture supernatant of the COS-7 cells in which hybrid antibody or humanized antibody was expressed or the purified hybrid antibody or the humanized antibody was stepwise diluted and added to each well. After the plate was incubated at room temperature and washed with PBS-Tween20, 100 μl of alkaline phosphatase (TAGO) conjugated goat anti-man IgG antibody was added. After the plate was incubated at room temperature and washed with PBS-Tween20, 1 mg/ml of a substrate solution (Sigma104, p-nitrophenylphosphate, SIGMA) was added, and 405 nm absorption was then measured on a micro plate reader (Bio Rad).
row,binding result,Binder
1,binds,B1
2,binds,B2
3,binds,B3
4,binds,B4
5,binds,B5
6,binds,B6
7,binds,B7
8,binds,B8
9,binds,B9
10,binds,B10
11,binds,B11
12,binds,B12
13,binds,B13
14,binds,B14

# Biological target: T1, human PTHrP (1-34)
# Experiment: solid phase RIA of hybridoma culture supernatant
# Procedure: Screening of hybridomas was performed by measuring and selecting the existence of a PTHrP recognizing antibody by applying solid phase RIA method to the culture supernatant of the wells where growth was recognized in HAT culture medium.
row,binding result,Binder
1,binds,B15

# Source: patent US20070053905A1 (Chugai, published 2007)
